Data taken from paper PMC5434536.

Target: TIP60, endogenous in C4-2 cells (human (endogenous in C4-2)) (UniProt Q92993)
Experiment: co-IP; endogenous proteins, C4-2 lysates; TIP60 immunoprecipitated with anti-TIP60; cells +/- 10 nM MB for 24 h; also cells transfected with siCtrl or siING3 and treated with MB; blot for AR

Chain of androgen receptor (AR), endogenous in C4-2 cells (P10275 whole entry): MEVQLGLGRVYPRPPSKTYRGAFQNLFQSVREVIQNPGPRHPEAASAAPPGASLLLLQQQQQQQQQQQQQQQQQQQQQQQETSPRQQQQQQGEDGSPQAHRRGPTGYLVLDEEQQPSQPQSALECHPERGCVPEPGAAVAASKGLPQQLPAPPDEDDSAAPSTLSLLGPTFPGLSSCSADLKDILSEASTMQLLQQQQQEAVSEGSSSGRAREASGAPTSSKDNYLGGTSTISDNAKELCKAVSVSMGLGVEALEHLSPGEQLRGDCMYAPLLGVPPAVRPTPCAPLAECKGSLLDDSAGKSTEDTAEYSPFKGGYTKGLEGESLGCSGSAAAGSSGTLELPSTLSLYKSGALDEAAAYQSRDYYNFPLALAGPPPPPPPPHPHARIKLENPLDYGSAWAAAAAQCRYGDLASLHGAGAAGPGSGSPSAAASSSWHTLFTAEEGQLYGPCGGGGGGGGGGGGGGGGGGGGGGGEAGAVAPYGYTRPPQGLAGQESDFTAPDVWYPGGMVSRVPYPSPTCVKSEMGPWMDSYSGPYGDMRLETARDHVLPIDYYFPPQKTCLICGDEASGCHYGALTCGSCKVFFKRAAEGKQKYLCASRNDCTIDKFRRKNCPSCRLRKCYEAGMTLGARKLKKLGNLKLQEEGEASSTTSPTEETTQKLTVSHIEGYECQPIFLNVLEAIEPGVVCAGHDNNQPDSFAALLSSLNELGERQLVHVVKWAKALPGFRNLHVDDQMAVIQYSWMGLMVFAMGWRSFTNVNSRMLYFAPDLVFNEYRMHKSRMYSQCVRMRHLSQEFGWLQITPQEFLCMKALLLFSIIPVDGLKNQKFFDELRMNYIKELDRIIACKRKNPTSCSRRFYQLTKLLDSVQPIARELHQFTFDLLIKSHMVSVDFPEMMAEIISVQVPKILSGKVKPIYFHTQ
Chain of TIP60, endogenous in C4-2 cells (human (endogenous in C4-2)) (Q92993 whole entry): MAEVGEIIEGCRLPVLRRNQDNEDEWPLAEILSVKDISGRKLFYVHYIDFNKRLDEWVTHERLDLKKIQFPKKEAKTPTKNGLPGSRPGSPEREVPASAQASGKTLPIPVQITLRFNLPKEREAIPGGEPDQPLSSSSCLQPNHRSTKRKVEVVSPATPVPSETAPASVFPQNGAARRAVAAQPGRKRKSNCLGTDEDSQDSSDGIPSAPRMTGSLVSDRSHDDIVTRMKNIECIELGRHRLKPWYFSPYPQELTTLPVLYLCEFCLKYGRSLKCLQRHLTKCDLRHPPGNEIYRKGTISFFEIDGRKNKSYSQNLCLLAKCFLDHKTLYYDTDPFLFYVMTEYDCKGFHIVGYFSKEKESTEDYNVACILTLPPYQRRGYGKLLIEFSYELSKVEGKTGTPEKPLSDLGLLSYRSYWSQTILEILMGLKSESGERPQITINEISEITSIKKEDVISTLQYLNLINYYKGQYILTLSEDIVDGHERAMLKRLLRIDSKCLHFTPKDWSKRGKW

With “androgen receptor (AR), endogenous in C4-2 cells (from UniProt P10275 1-920)” as the substance, how does the fold reduction of the AR-TIP60 association with siING3 against siCtrl read?
Its fold reduction of the AR-TIP60 association with siING3 against siCtrl is 3 fold.
